Measurements: article PMC4063869, “Structure of CbpA J-Domain Bound to the Regulatory Protein CbpM Explains Its Specificity and Suggests Evolutionary Link between CbpM and Transcriptional Regulators” (PLoS ONE, 2014)

How the values were obtained:
[1] = molecular target: Klebsiella pneumoniae CbpM (residues 2-101) (Klebsiella pneumoniae (strain ATCC 700721/MGH 78578)); test: crystal structure; K. pneumoniae CbpM with E. coli CbpA^Jdom, complex separated from excess CbpA^Jdom on Superdex 75; hanging drop, 0.1 M HEPES pH 7, 20% (w/v) PEG 8K; 1.87 Å
[2] = molecular target: the molecule itself; test: as above
[3] = molecular target: T1, CbpM (residues 2-101), species not named for the experiment ( (E. coli K-12 or K. …, UniProt P63264 2-101)); test: SPR; CbpM immobilised, DnaJ^Jdom variants injected (50 µL/min, 120 s); ProteOn XPR36, 25°C, 50 mM sodium phosphate pH 7.4, 100 mM NaCl, 1 mM DTT, 0.005% Tween 20; steady-state equilibrium fit (one site); details: both partners purified
T1 construct: CbpM residues 2-101; the immobilisation is told there; also called immobilized CbpM; source: E. coli Rosetta pLysS, purified (Ni-NTA, tag cleaved, amylose resin, size exclusion); not shown: His-MBP, N-terminal, cleaved
T1 sequence: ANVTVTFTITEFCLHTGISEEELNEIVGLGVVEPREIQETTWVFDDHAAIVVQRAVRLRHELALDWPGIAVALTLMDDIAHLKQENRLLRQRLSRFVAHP

“J-domain of E. coli CbpA (CbpA^Jdom) (domain or fragment)” was tested, and the stoichiometry N (binder:target chains (printed 2:2)) [1] was 1.

B1: Klebsiella pneumoniae CbpM (residues 2-101) (natural protein, UniProt A0A378AXB4 2-101, looked up)
chain: ATVTVTFTITELCLRTGVSEEELTEIVGLGMIEPHQPQADTWLFDDSAVTIVHRAVRLRNELELDWPGIAVALTLLDENARLTRENRLLQQRLARFLAHG
notes: CbpM of Klebsiella pneumoniae (strain ATCC 700721/MGH 78578), residues 2-101, amplified from genomic DNA; Forms a parallel coiled-coil dimer in the crystal; each CbpA J-domain touches both subunits; also called K. pneumoniae CbpM; Klebsiella CbpM; source: E. coli Rosetta pLysS, purified (Ni-NTA, tag cleaved, amylose resin, size exclusion); not shown: His-MBP, N-terminal, cleaved
For B1, the “stoichiometry N” value [2] was 2.

B2: Chimeric DnaJ^Jdom(25-47): DnaJ J-domain with the central region Y25-F47 replaced by that of CbpA^Jdom (domain or fragment, E. coli, UniProt P08622 2-79, looked up)
chain: AKQDYYEILGVSKTAEEREIRKAYRRLARKYHPDVSKEPDAEARFKEIKEAYEVLTDSQKRAAYDQYGHAAFEQGGM
notes: DnaJ of E. coli, J-domain, residues 2-79, with residues 25-47 replaced by residues 25-46 of E. coli CbpA; also called chimera DnaJ^Jdom (25-47); source: E. coli Rosetta pLysS, purified (glutathione sepharose, tag cleaved, size exclusion); not shown: GST, N-terminal, cleaved
B2 was tested, and the Kd [3] was 26 µM.
